From paper PMC12278352, “Characterization of DnaB–DnaG Interaction in M. tuberculosis Using Small‐Angle X‐ray Scattering‐Based Dissociation Assay” (Chembiochem, 2025)

B1: M. tuberculosis DnaG primase, full-length (enzyme)
chain: MSGRISDRDIAAIREGARIEDVVGDYVQLRRAGADSLKGLCPFHNEKSPSFHVRPNHGHFHCFGCGEGGDVYAFIQKIEHVSFVEAVELLADRIGHTISYTGAATSVQRDRGSRSRLLAANAAAAAFYAQALQSDEAAPARQYLTERSFDAAAARKFGCGFAPSGWDSLTKHLQRKGFEFEELEAAGLSRQGRHGPMDRFHRRLLWPIRTSAGEVVGFGARRLFDDDAMEAKYVNTPETLLYKKSSVMFGIDLAKRDIAKGHQAVVVEGYTDVMAMHLAGVTTAVASCGTAFGGEHLAMLRRLMMDDSFFRGELIYVFDGDEAGRAAALKAFDGEQKLAGQSFVAVAPDGMDPCDLRLKCGDAALRDLVARRTPLFEFAIRAAIAEMDLDSAEGRVAALRRCVPMVGQIKDPTLRDEYARQLAGWVGWADVAQVIGRVRGEAKRTKHPRLGRLGSTTIARAAQRPTAGPPTELAVRPDPRDPTLWPQREALKSALQYPALAGPVFDALTVEGFTHPEYAAVRAAIDTAGGTSAGLSGAQWLDMVRQQTTSTVTSALISELGVEAIQVDDDKLPRYIAGVLARLQEVWLGRQIAEVKSKLQRMSPIEQGDEYHALFGDLVAMEAYRRSLLEQASGDDLTA
notes: DnaG primase, Mycobacterium tuberculosis, full length (the truncated form ends at amino acid 639); also called full DnaG; full-length DnaG
B2: primase domain of gene 4 protein (gp4) from bacteriophage T7 (residues 1–271) (domain or fragment, UniProt P03692 1-271, looked up)
chain: MDNSHDSDSVFLYHIPCDNCGSSDGNSLFSDGHTFCYVCEKWTAGNEDTKERASKRKPSGGKPMTYNVWNFGESNGRYSALTARGISKETCQKAGYWIAKVDGVMYQVADYRDQNGNIVSQKVRDKDKNFKTTGSHKSDALFGKHLWNGGKKIVVTEGEIDMLTVMELQDCKYPVVSLGHGASAAKKTCAANYEYFDQFEQIILMFDMDEAGRKAVEEAAQVLPAGKVRVAVLPCKDANECHLNGHDREIMEQVWNAGPWIPDGVVSALSL
notes: primase domain of gene 4 protein (gp4), bacteriophage T7, residues 1-271; For the NMR spectra the protein was 15N-labelled and deuterated; Monomer without cofactors, dimer with ATP/CTP, RNA and Mg2+; also called T7 primase; T7 DNA primase

Assays:
[1] = biological target: the molecule itself; experiment: SPR; full-length DnaG (7.2 μg) immobilised on a GLC chip by amine coupling; soluble DnaG 0-17 μM, 60 μL/min; signal at equilibrium; profile did not follow a pure 1:1 fit; monomer to dimer
[2] = biological target: the molecule itself; experiment: cross-linking; Fe(II)-catalysed cross-linking of T7 primase (15 μM) with 1 mM ATP, ferrous chloride, H2O2, ascorbic acid, room temperature 45 min; products analysed by Superdex 200 SEC, SDS-PAGE and MALDI-TOF
[3] = biological target: the molecule itself; experiment: SAXS; T7 primase at constant concentration (1 mg/ml in the methods, 50 μM in the legend) with increasing 4-mer RNA (5'-ACCC-3'), RNA:protein molar ratio 1 to 10, in the presence of ATP/CTP, RNA and Mg2+; 20 mM Tris-HCl pH 7.5, 1 mM DTT; 4 °C; Rg against theoretical monomer (24 Å) and dimer (27 Å)

| Protein | Kd [1] | stoichiometry N [2] | stoichiometry N [3] |
| --- | --- | --- | --- |
| B1 | 2000 ± 300 nM |  |  |
| B2 |  | 3 | 2 |
